Patent publication US20260116960A1 (SHANGHAI HONGCHENG BIOPHARMACEUTICAL, published 2026)

B1: HC010-F9 (trispecific antibody, human IgG4 S228P, kappa)
heavy: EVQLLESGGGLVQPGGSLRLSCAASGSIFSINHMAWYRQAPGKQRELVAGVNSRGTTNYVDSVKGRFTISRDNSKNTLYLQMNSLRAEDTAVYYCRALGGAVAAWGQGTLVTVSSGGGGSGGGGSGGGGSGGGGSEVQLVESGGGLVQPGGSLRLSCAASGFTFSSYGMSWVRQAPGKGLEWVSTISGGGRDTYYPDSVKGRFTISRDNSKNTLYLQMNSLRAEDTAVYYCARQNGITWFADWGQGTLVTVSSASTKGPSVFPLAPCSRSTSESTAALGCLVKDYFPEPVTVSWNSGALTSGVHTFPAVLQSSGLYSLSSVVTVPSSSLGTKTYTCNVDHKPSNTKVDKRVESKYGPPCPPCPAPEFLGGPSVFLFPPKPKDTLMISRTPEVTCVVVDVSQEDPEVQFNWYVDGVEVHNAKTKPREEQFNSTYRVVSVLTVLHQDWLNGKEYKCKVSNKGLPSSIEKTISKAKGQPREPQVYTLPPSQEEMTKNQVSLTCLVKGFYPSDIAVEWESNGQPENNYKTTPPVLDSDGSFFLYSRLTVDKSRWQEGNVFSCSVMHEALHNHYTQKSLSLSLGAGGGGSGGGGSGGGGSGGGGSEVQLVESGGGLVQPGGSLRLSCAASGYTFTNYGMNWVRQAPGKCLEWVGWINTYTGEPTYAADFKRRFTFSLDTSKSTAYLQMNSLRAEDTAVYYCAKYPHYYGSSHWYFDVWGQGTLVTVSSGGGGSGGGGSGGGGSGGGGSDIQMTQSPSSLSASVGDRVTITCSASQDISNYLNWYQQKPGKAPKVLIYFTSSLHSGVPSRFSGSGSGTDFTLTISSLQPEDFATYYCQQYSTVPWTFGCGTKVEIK
light: DIQMTQSPSSLSASVGDRVTITCRASESVDNYGISFMNWYQQKPGKAPKLLIYAASNQGSGVPSRFSGSGSGTDFTLTISSLQPEDFATYYCQQSKEVPWTFGGGTKVEIKRTVAAPSVFIFPPSDEQLKSGTASVVCLLNNFYPREAKVQWKVDNALQSGNSQESVTEQDSKDSTYSLSSTLTLSKADYEKHKVYACEVTHQGLSSPVTKSFNRGEC
notes: light: CQ1-3/1-11 VL-kappa; also called H010-F9
B2: HC010-F10 (trispecific antibody, human IgG4 S228P, kappa)
heavy: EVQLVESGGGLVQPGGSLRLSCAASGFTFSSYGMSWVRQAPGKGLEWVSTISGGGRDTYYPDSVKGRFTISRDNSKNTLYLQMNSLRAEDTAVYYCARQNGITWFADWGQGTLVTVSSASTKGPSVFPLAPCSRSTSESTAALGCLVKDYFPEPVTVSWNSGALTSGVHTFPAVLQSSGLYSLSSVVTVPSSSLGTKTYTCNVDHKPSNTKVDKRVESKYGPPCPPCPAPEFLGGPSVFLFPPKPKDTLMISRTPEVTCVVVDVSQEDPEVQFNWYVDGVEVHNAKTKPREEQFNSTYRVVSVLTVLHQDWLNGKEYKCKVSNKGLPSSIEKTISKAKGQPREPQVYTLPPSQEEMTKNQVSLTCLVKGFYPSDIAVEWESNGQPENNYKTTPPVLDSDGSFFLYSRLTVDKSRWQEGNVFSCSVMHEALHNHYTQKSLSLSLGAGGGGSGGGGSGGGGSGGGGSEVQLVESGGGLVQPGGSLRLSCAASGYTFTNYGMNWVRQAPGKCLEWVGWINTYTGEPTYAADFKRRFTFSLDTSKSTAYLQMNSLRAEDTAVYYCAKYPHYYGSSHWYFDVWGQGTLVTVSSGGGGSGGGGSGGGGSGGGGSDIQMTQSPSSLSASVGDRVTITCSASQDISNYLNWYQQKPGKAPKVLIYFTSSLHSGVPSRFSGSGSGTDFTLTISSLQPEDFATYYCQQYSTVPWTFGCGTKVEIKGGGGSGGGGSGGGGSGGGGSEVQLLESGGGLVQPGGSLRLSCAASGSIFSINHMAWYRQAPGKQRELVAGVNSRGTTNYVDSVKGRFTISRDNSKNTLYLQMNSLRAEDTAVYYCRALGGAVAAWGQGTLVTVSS
light: B1 light
notes: light: CQ1-3/1-11 VL-kappa; also called H010-F10

How the values were obtained:
[1] = target: T1, hPD1-mFc (Acro, Catalog No. PD1-H5255) (human, UniProt Q15116 25-167); assay: flow cytometry: antibody titrated on CHOK1-hCTLA4 cells, then mixture of hPD1-mFc and biotin-hVEGF165; AF647 anti-mIgG signal
T1 construct: Bought protein; also called human PD-1 mouse Fc fusion; not shown: mouse Fc (mFc)
T1 sequence (Q15116 25-167 limits assumed): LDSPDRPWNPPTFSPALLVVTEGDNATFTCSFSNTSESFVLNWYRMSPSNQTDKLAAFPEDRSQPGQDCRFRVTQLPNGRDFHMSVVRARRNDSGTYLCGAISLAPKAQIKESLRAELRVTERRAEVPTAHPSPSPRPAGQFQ
Procedure: CHOK1-hCTLA4 cells were obtained by trypsin digestion, washed twice with PBS containing 2% FBS (FACS buffer), and the cell density was adjusted to about 8×10⁵ cells/ml. 200 μL/well of the cells were added to a 96-well U-bottom plate. After centrifugation at 300 g for 5 minutes, the supernatant was discarded and 100 μL of antibody solution serially diluted with FACS buffer was added in triplicate (with starting concentration of 200 nM, 3-fold serial dilution, and the same volume of FACS buffer was used as a negative control). Mixed well and incubated at 4° C. for 60 min. After washing the plate three times with FACS buffer, a mixture consisting of 1 μg/mL hPD1-mFc (Acro, Catalog No.: PD1-H5255) and 1 μg/mL Biotin-hVEGF165 in a 1:1 volume ratio was added to each well at 100 μL/well to detect the simultaneously binding activity of the trispecific antibodies to VEGF and PD-1 after binding to cell surface CTLA-4. […] After washing the plate three times with FACS buffer, 100 μL/well of PBS solution was added to resuspend the cells, and the fluorescence signal was detected on a flow cytometer. The binding activity was fitted using a four-parameter model, and the EC₅₀ value of each antibody was calculated.

[2] = target: T2, Biotinylated Human VEGF165 (Acro, Catalog No. VE5-H82Q0) (human, UniProt P15692-4 27-191, biotinylated (site not stated)); assay: flow cytometry: antibody titrated on 293T-hPD-1-hCTLA-4 cells, detected with 2 ug/mL biotin-hVEGF165 and PE streptavidin
T2 construct: Bought protein; also called Biotinylated-hVEGF165; Biotin-hVEGF165
T2 sequence (P15692 other isoform, or with tags, fused parts or gaps limits assumed): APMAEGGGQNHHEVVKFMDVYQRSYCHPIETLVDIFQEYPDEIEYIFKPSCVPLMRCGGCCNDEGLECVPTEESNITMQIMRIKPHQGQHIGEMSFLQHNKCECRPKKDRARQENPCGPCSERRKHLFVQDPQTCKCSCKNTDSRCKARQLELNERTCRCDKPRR
Procedure: After centrifugation at 300 g for 5 minutes, the supernatant was discarded, and 100 μL of trispecific antibody solution serially diluted 3-fold with FACS buffer was added, with a starting concentration of 200 nM, and the same volume of FACS buffer was added as a negative control. After mixing, incubated at 4° C. for 60 minutes. After centrifugation and washing three times with FACS buffer, 2 μg/mL Biotin-hVEGF165 was added at 100 μL/well and incubated at 4° C. for 60 minutes. After centrifugation and washing three times with FACS buffer, 100 μL/well of 1:800 diluted PE Streptavidin (BD, Catalog No.: 554061) was added and incubated at 4° C. for 50 minutes. After centrifugation and washing three times with FACS buffer, 100 μL/well of FACS buffer was added to resuspend the cells, and the fluorescence signal was detected on a flow cytometer (BECKMAN COULTER cytoFLEX). The binding activity was fitted using a four-parameter model, and the EC₅₀ value of each antibody binding was calculated.

[3] = target: T3, human PD-1 on the cell surface (human, UniProt Q15116 25-288); assay: flow cytometry, 293T-hPD-1 cells, batch FACS#1
T3 construct: whole, on cells; also called cell surface PD-1
T3 sequence (Q15116 25-288): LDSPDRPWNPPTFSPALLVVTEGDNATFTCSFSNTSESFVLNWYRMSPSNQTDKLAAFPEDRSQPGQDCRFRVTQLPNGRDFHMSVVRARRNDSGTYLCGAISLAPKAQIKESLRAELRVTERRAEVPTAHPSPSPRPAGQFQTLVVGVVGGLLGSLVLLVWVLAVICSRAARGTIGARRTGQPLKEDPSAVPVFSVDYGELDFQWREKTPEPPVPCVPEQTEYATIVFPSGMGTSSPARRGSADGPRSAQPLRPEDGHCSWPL
Procedure: After centrifugation at 300 g for 5 minutes, the supernatant was discarded. The antibodies were serially diluted 3-fold with FACS buffer to obtain two gradient series solution FACS #1 and FACS #2, with the starting concentration of 200 nM (Table 5, FACS #1) or 100 nM (Table 5, FACS #2, FIG. 2), respectively. Then 100 μL/well was added to a 96-well plate in triplicate, mixed, and incubated at 4° C. for 60 min. The plate was centrifuged and washed three times with FACS buffer. 100 μL/well of 1:800 diluted AF647-anti-hIgG(H+L) (Jackson, Catalog No.: 109-605-003) was added and incubated at 4° C. for 50 minutes. After washing the plate three times with FACS buffer, 100 μL/well of FACS buffer was added to resuspend the cells, and the fluorescence signal was detected on a flow cytometer (BECKMAN COULTER cytoFLEX). The binding activity was fitted using a four-parameter model to calculate the EC₅₀ value of each antibody binding to PD-1.

[4] = target: T4, human PD-1 protein (Acro, Catalog No. PD1-H5221) (human, UniProt Q15116 25-167); assay: ELISA, plate coated with human PD-1 protein
T4 construct: Bought protein; also called human PD1-his; not shown: his tag
T4 sequence (Q15116 25-167 limits assumed): as the sequence (Q15116 25-167 limits assumed) above

[5] = target: human PD-1 protein (Acro, PD1-H5257) (human, UniProt Q15116 25-167); assay: competitive ELISA, PD-1 coated, biotin-PD-L1 as labelled ligand
Sequence of human PD-1 protein (Acro, PD1-H5257) (Q15116 25-167 limits assumed): as above

Row | Binder | EC50 [1] [nM] | EC50 [2] [nM] | EC50 [3] [nM] | EC50 [4] [nM] | IC50 [5] [nM]
1 | B1 | 1.53 | 4.2 | 3.53 | 0.082 | 0.923
2 | B2 | 2.73 | 4.9 | 5.77 | 0.093 | 0.837
